The RNAGym collection of RNA variant scans (doi:10.1073/pnas.2313332121)
Variants at the floor of the assay were thinned out.

B1: TPR 5TU (parent)
chain: GGAUCUUCUCGAUCUAACAAAAAAGACAAAUCUGCCACAAAGCUUGAGAGCAUCUUCGGAUGCAGAGGCGGCAGCCUUCGGUGGCGCGAUAGCGCCAACGUUCUCAACUAUGACACGCAAAACGCGUGCUCCGUUGAAUGGAGUUUAUCAUG

Variants of: B1
Experiment: polymerase ribozyme fitness, log enrichment relative to wild type (log ratio); higher = more active; in vitro selection for triplet polymerase activity
Outline: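 Frozen incubation at −7 °C formed the core of a single, triplicate in vitro selection round applied to PCR-built, transcribed mutant libraries of each subunit of a heterodimeric triplet polymerase ribozyme. Extended constructs were gel-excised, captured with streptavidin beads and amplified by RT-PCR, and input and output libraries were Illumina-sequenced with a filter of ≥10 input reads and ≥1 read per output. Fitness is the logarithm of genotype enrichment relative to wild-type enrichment, with inverse-variance-weighted replicate averaging, and the logarithm is base 2.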

U6A G50C G86U U102C A121C and U4A U31G A37C G86C C123G cannot be ordered by “polymerase ribozyme fitness (log ratio)” value: at most -4.2 for the first, at most -4.2 for the second.

C5U C57U C87A A91C and U6A G81C G94U A113U C114U U151C cannot be ordered by “polymerase ribozyme fitness (log ratio)” value: at most -4.2 for the first, at most -4.2 for the second.

First: C5U A40G C85G
Second: C5G U6G U61C C85U
The “polymerase ribozyme fitness (log ratio)” value of the first is higher: -3.18 for the first, -3.57 for the second.

Going from U6A C57U A98G to C5A C96A G143C, the “polymerase ribozyme fitness (log ratio)” value falls from -0.654 to -3.53.

First: C5U A28U C51G C75G C95U G141U
Second: U4C U53A A121C U144C
The “polymerase ribozyme fitness (log ratio)” value of the first is lower: -4.02 for the first, -1.34 for the second.

First: C5A C85U C95G
Second: C5G U45C
The “polymerase ribozyme fitness (log ratio)” value of the first is lower: -1.93 for the first, -1.55 for the second.

First: C5G C18G A41C G152U
Second: U4G C87A A98G U130G
The “polymerase ribozyme fitness (log ratio)” value of the first is higher: -3.98 for the first, at most -4.2 for the second.

Compared with C5A C75U C87U, U6A U7G U13A C35A C54A G71U A91U U101A U127C G141U is lower in “polymerase ribozyme fitness (log ratio)” value: 0.223 for the first, at most -4.2 for the second.

C5A A12U U13A U15A G83U C95U A107U C108U and C5G G68C C131U C132G U145G A150C cannot be ordered by “polymerase ribozyme fitness (log ratio)” value: at most -4.2 for the first, at most -4.2 for the second.

C5A U55A G58C G68U G81A A91U C96A and C5A A30U U77A G92U cannot be ordered by “polymerase ribozyme fitness (log ratio)” value: at most -4.2 for the first, at most -4.2 for the second.

First: U4A G136A
Second: C5G C43U A73U G92U U134A U144C
The “polymerase ribozyme fitness (log ratio)” value of the first is higher: 0.134 for the first, at most -4.2 for the second.

C5A C8U U9G C51U C85U A106U A107C C118A and U4G C18U C51U G80C A91G C95G C105U U109A A119U cannot be ordered by “polymerase ribozyme fitness (log ratio)” value: at most -4.2 for the first, at most -4.2 for the second.

First: C5G C85G
Second: C5G C85U
The “polymerase ribozyme fitness (log ratio)” value of the first is lower: -1.46 for the first, -1.17 for the second.

Compared with U4G C54G C96G A137G, C5G C63A is higher in “polymerase ribozyme fitness (log ratio)” value: -4.19 for the first, 0.429 for the second.

First: C5A U6C A30U A91U C118A A138G
Second: C5A G86U G141A
The “polymerase ribozyme fitness (log ratio)” value of the first is lower: at most -4.2 for the first, -1.49 for the second.

First: U4A U61A G94A
Second: U4C U15C C87A A121C
The “polymerase ribozyme fitness (log ratio)” value of the first is higher: -1.99 for the first, at most -4.2 for the second.

C5G C10G U13G C14G C54A C57U G88U G94A U139C U144C and U4G G50A C96G U102G C123A cannot be ordered by “polymerase ribozyme fitness (log ratio)” value: at most -4.2 for the first, at most -4.2 for the second.

First: C5U C99U
Second: U6A A26G A64C C87U A89C U146C
The “polymerase ribozyme fitness (log ratio)” value of the first is higher: 0.209 for the first, at most -4.2 for the second.

First: C5U A41U G50A
Second: U6C A26G A29U A73G C96A U104G
The “polymerase ribozyme fitness (log ratio)” value of the first is higher: -2.81 for the first, -3.88 for the second.

Compared with U6A A17G C27U A66U U145A, C5A C85A is higher in “polymerase ribozyme fitness (log ratio)” value: at most -4.2 for the first, -1.31 for the second.

Compared with U6A C118G, U6A C69U is higher in “polymerase ribozyme fitness (log ratio)” value: -1.66 for the first, -1.1 for the second.

Compared with C5U A17C C54A C85A C93U C105G A113G G141A, C5G G25U C27G A37G G46A U61A C96U is higher in “polymerase ribozyme fitness (log ratio)” value: at most -4.2 for the first, -4.17 for the second.

Going from C5G U55G A73U to U4G C10A U56A G71C G84C, the “polymerase ribozyme fitness (log ratio)” value falls from -3.69 to at most -4.2.

Going from C5G A37U G83C C129A U145A to C5U A19U G83U G92U C123A G126U U146G, the “polymerase ribozyme fitness (log ratio)” value rises from at most -4.2 to -4.19.

Compared with C5A C54U, U4G C57G is lower in “polymerase ribozyme fitness (log ratio)” value: 0.00554 for the first, -0.334 for the second.

Compared with U4A U56A, C5U C14U A23C U90C C96A C103G G124U is lower in “polymerase ribozyme fitness (log ratio)” value: -0.0652 for the first, at most -4.2 for the second.

Compared with U4G A30G A91G G94C G128U C132A, C5A G42A A97G U101G C103G A110G G140U is higher in “polymerase ribozyme fitness (log ratio)” value: at most -4.2 for the first, -3.6 for the second.

First: C5U U7G C14G A21C U56G C57A G58C C103A A142U U145C
Second: C5G C96G G141U
The “polymerase ribozyme fitness (log ratio)” value of the first is lower: at most -4.2 for the first, -0.469 for the second.

C5A C14U C32A U33A A47U U82G G92U G126C U135G and U4A U33C G59A U90G C95A U111G C125A cannot be ordered by “polymerase ribozyme fitness (log ratio)” value: at most -4.2 for the first, at most -4.2 for the second.

Going from U4G G46A to C5G A17G C32U A49C C54U U55G G88C C96A, the “polymerase ribozyme fitness (log ratio)” value falls from -0.673 to at most -4.2.

Compared with U4A C93U, U4A C10U A23C C57U G81A G92C A115C C118A is lower in “polymerase ribozyme fitness (log ratio)” value: -1.34 for the first, at most -4.2 for the second.

Going from U4C G58C to C5A G11U A21C C54U C57A C87U, the “polymerase ribozyme fitness (log ratio)” value falls from 0.358 to -1.42.

U6A A24C A40U A52U C57A A98U A115C and C5U U13G A22U U55A G65U G70U C87A C95U A98G A137C G141A G143C cannot be ordered by “polymerase ribozyme fitness (log ratio)” value: at most -4.2 for the first, at most -4.2 for the second.

Going from C5A G11C G50U G58C C85A to C5G U15G A49U A91U C116A C149G, the “polymerase ribozyme fitness (log ratio)” value falls from -2.8 to at most -4.2.

Compared with C5G A41C U134C, C5A A17C G83A G143U is lower in “polymerase ribozyme fitness (log ratio)” value: -1.61 for the first, -2.68 for the second.

First: C5G G124C
Second: C5G U6C C57A C85U
The “polymerase ribozyme fitness (log ratio)” value of the first is higher: -0.88 for the first, -1.26 for the second.

U4G C38U G86C C105G A138C and U4C A19C C38G C93U C114G cannot be ordered by “polymerase ribozyme fitness (log ratio)” value: at most -4.2 for the first, at most -4.2 for the second.

U4G A30G C32A C85A G141C and U4G A23C A30U A52C U56A cannot be ordered by “polymerase ribozyme fitness (log ratio)” value: at most -4.2 for the first, at most -4.2 for the second.

U4C C51A U82A C96A and U6A C57U A60U C99U U111G G126U C129G cannot be ordered by “polymerase ribozyme fitness (log ratio)” value: at most -4.2 for the first, at most -4.2 for the second.

C5G A12U C27G A49C C54U U61A C93G C95A A119G U134A A150C and U4C A47C G84A G88A G92U A142G cannot be ordered by “polymerase ribozyme fitness (log ratio)” value: at most -4.2 for the first, at most -4.2 for the second.

U4G G50C C118U and C5G A21U C27U G46A G94C C105G G126A cannot be ordered by “polymerase ribozyme fitness (log ratio)” value: at most -4.2 for the first, at most -4.2 for the second.

Compared with C5G A12G A19U C75A C103G C114U G117A A121C A142U, C5G C18G G48U U53A C103G is higher in “polymerase ribozyme fitness (log ratio)” value: at most -4.2 for the first, -3.62 for the second.
